Assays:
[1] = target: T1, human CD3 (human, UniProt P07766 23-207); assay: flow cytometry on human CD3 positive T cells
T1 construct: whole, on cells; Assays used CD3 positive T cells (or CIK cells) from human blood; also called Human CD3ϵ; CD3 on human CD3 positive T cells

[2] = target: T2, monkey CD3 (monkey); assay: flow cytometry on monkey CD3 positive T cells
T2 construct: whole, on cells; also called CD3 on monkey CD3 positive T cells

[3] = target: T3, Human CD38 (human, UniProt P28907 1-300); assay: flow cytometry on CD38 positive tumor cells (MM.1S or RPMI 8226)
T3 construct: whole, on cells; the assays used the protein on tumor cells

Binder	EC50 [1] [nM]	EC50 [2] [nM]	EC50 [3] [nM]
MS-hCD3-IC18 (bispecific antibody, human IgG1, kappa, 4420 Fab arm and anti-CD3 scFv (VH2j/VL5a)-Fc fusion peptide, CH2 SG2) scFv: QVQLVESGGGVVQPGRSLRLSCAASGFTFSTYAMNWVRQAPGKGLEWVARIRSKYNNYATYYADSVKDRFTISRDDSKNTLYLQMNSLRAEDTAVYYCARHGNFGNSYVSWAAYWGQGTLVTVSSGGGGSGGGGSGGGGSQTVVTQEPSLTVSPGGTVTLTCRSSTGAVTTSNYANWFQQKPGQAPRGLIGGTNKRAPGVPARFSGSLLGGKAALTLSGVQPEDEAEYYCALWYSNLWVFGGGTKVEIKGGGGSDKTHTCPPSPAPPVAGPSVFLFPPKPKDTLMISRTPEVTCVVVDVSHEDPEVQFNWYVDGVEVHNAKTKPREEQFNSTFRVVSVLTVVHQDWLNGKEYKCKVSNKGLPAPIEKTISKTKGQPREPQVCTLPPSRDELTKNQVSLSCAVKGFYPSDIAVEWESNGQPENNYKTTPPVLDSDGSFFLVSKLTVDKSRWQQGNVFSCSVMHEALHNHYTQKSLSLSPGK heavy: EVKLDETGGGLVQPGRPMKLSCVASGFTFSDYWMNWVRQSPEKGLEWVAQIRNKPYNYETYYSDSVKGRFTISRDDSKSSVYLQMNNLRVEDMGIYYCTGSYYGMDYWGQGTSVTVSSASTKGPSVFPLAPSSKSTSGGTAALGCLVKDYFPEPVTVSWNSGALTSGVHTFPAVLQSSGLYSLSSVVTVPSSSLGTQTYICNVNHKPSNTKVDKKVEPKSCDKTHTCPPSPAPPVAGPSVFLFPPKPKDTLMISRTPEVTCVVVDVSHEDPEVQFNWYVDGVEVHNAKTKPREEQFNSTFRVVSVLTVVHQDWLNGKEYKCKVSNKGLPAPIEKTISKTKGQPREPQVYTLPPCRDELTKNQVSLWCLVKGFYPSDIAVEWESNGQPENNYKTTPPVLDSDGSFFLYSKLTVDKSRWQQGNVFSCSVMHEALHNHYTQKSLSLSPGK light: DVVMTQTPLSLPVSLGDQASISCRSSQSLVHSNGNTYLRWYLQKPGQSPKVLIYKVSNRFSGVPDRFSGSGSGTDFTLKISRVEAEDLGVYFCSQSTHVPWTFGGGTKLEIKRTVAAPSVFIFPPSDEQLKSGTASVVCLLNNFYPREAKVQWKVDNALQSGNSQESVTEQDSKDSTYSLSSTLTLSKADYEKHKVYACEVTHQGLSSPVTKSFNRGEC	582	680	–
IC-2 (bispecific antibody, human IgG1, kappa, Comparative: 4420 Fab arm and anti-CD3 scFv (SP34)-Fc fusion peptide, CH2 FES) scFv: EVQLVESGGGLVQPKGSLKLSCAASGFTFNTYAMNWVRQAPGKGLEWVARIRSKYNNYATYYADSVKDRFTISRDDSQSILYLQMNNLKTEDTAMYYCVRHGNFGNSYVSWFAYWGQGTLVTVSSGGGGSGGGGSGGGGSQAVVTQESALTTSPGETVTLTCRSSTGAVTTSNYANWVQEKPDHLFTGLIGGTNKRAPGVPARFSGSLIGDKAALTITGAQTEDEAIYFCALWYSNLWVFGGGTKLTVLGDGDGSDKTHTCPPCPAPEFEGGPSVFLFPPKPKDTLMISRTPEVTCVVVDVSHEDPEVKFNWYVDGVEVHNAKTKPREEQYNSTYRVVSVLTVLHQDWLNGKEYKCKVSNKALPASIEKTISKAKGQPREPQVCTLPPSRDELTKNQVSLSCAVKGFYPSDIAVEWESNGQPENNYKTTPPVLDSDGSFFLVSKLTVDKSRWQQGNVFSCSVMHEALHNHYTQKSLSLSPGK heavy: EVKLDETGGGLVQPGRPMKLSCVASGFTFSDYWMNWVRQSPEKGLEWVAQIRNKPYNYETYYSDSVKGRFTISRDDSKSSVYLQMNNLRVEDMGIYYCTGSYYGMDYWGQGTSVTVSSASTKGPSVFPLAPSSKSTSGGTAALGCLVKDYFPEPVTVSWNSGALTSGVHTFPAVLQSSGLYSLSSVVTVPSSSLGTQTYICNVNHKPSNTKVDKKVEPKSCDKTHTCPPCPAPEFEGGPSVFLFPPKPKDTLMISRTPEVTCVVVDVSHEDPEVKFNWYVDGVEVHNAKTKPREEQYNSTYRVVSVLTVLHQDWLNGKEYKCKVSNKALPASIEKTISKAKGQPREPQVYTLPPCRDELTKNQVSLWCLVKGFYPSDIAVEWESNGQPENNYKTTPPVLDSDGSFFLYSKLTVDKSRWQQGNVFSCSVMHEALHNHYTQKSLSLSPGK light: DVVMTQTPLSLPVSLGDQASISCRSSQSLVHSNGNTYLRWYLQKPGQSPKVLIYKVSNRFSGVPDRFSGSGSGTDFTLKISRVEAEDLGVYFCSQSTHVPWTFGGGTKLEIKRTVAAPSVFIFPPSDEQLKSGTASVVCLLNNFYPREAKVQWKVDNALQSGNSQESVTEQDSKDSTYSLSSTLTLSKADYEKHKVYACEVTHQGLSSPVTKSFNRGEC	172	312	–
IC-3 (bispecific antibody, human IgG1, kappa, N297Q, Comparative: 4420 Fab arm and anti-CD3 scFv (SP34)-Fc fusion peptide, CH2 N297Q) scFv: not shown heavy: EVKLDETGGGLVQPGRPMKLSCVASGFTFSDYWMNWVRQSPEKGLEWVAQIRNKPYNYETYYSDSVKGRFTISRDDSKSSVYLQMNNLRVEDMGIYYCTGSYYGMDYWGQGTSVTVSSASTKGPSVFPLAPSSKSTSGGTAALGCLVKDYFPEPVTVSWNSGALTSGVHTFPAVLQSSGLYSLSSVVTVPSSSLGTQTYICNVNHKPSNTKVDKKVEPKSCDKTHTCPPCPAPELLGGPSVFLFPPKPKDTLMISRTPEVTCVVVDVSHEDPEVKFNWYVDGVEVHNAKTKPREEQYQSTYRVVSVLTVLHQDWLNGKEYKCKVSNKALPAPIEKTISKAKGQPREPQVYTLPPCRDELTKNQVSLWCLVKGFYPSDIAVEWESNGQPENNYKTTPPVLDSDGSFFLYSKLTVDKSRWQQGNVFSCSVMHEALHNHYTQKSLSLSPGK light: DVVMTQTPLSLPVSLGDQASISCRSSQSLVHSNGNTYLRWYLQKPGQSPKVLIYKVSNRFSGVPDRFSGSGSGTDFTLKISRVEAEDLGVYFCSQSTHVPWTFGGGTKLEIKRTVAAPSVFIFPPSDEQLKSGTASVVCLLNNFYPREAKVQWKVDNALQSGNSQESVTEQDSKDSTYSLSSTLTLSKADYEKHKVYACEVTHQGLSSPVTKSFNRGEC	155	285	–
Y150-F9-7 (bispecific antibody, human IgG1, lambda) scFv: QVQLVESGGGVVQPGRSLRLSCAASGFTFSTYAMNWVRQAPGKGLEWVARIRSKYNNYATYYADSVKDRFTISRDDSKNTLYLQMNSLRAEDTAVYYCARHGNFGNSYVSWFAYWGQGTLVTVSSGGGGSGGGGSGGGGSQTVVTQEPSLTVSPGGTVTLTCRSSTGAVTTSNYANWVQQKPGQAPRGLIGGTNKRAPGVPARFSGSLLGGKAALTLSGVQPEDEAEYYCALWYSNLWVFGGGTKVEIKGGGGSDKTHTCPPCPAPEFEGGPSVFLFPPKPKDTLMISRTPEVTCVVVDVSHEDPEVKFNWYVDGVEVHNAKTKPREEQYNSTYRVVSVLTVLHQDWLNGKEYKCKVSNKALPASIEKTISKAKGQPREPQVCTLPPSRDELTKNQVSLSCAVKGFYPSDIAVEWESNGQPENNYKTTPPVLDSDGSFFLVSKLTVDKSRWQQGNVFSCSVMHEALHNHYTQKSLSLSPGK heavy: not shown light: DIELTQPPSVSVAPGQTARISCSGDNLRHYYVYWYQQKPGQAPVLVIYGDSKRPSGIPERFSGSNSGNTATLTISGTQAEDEADYYCQTYTGGASLVFGGGTKLTVLGQPKAAPSVTLFPPSSEELQANKATLVCLISDFYPGAVTVAWKADSSPVKAGVETTTPSKQSNNKYAASSYLSLTPEQWKSHRSYSCQVTHEGSTVEKTVAPTECS	426	422	103
Y150-F9-6 (bispecific antibody, human IgG1, lambda, Comparative: anti-CD38 (MOR) Fab arm and anti-CD3 scFv (SP34)-Fc fusion peptide; 150 is used) scFv: EVQLVESGGGLVQPKGSLKLSCAASGFTFNTYAMNWVRQAPGKGLEWVARIRSKYNNYATYYADSVKDRFTISRDDSQSILYLQMNNLKTEDTAMYYCVRHGNFGNSYVSWFAYWGQGTLVTVSSGGGGSGGGGSGGGGSQAVVTQESALTTSPGETVTLTCRSSTGAVTTSNYANWVQEKPDHLFTGLIGGTNKRAPGVPARFSGSLIGDKAALTITGAQTEDEAIYFCALWYSNLWVFGGGTKLTVLGDGDGSDKTHTCPPCPAPEFEGGPSVFLFPPKPKDTLMISRTPEVTCVVVDVSHEDPEVKFNWYVDGVEVHNAKTKPREEQYNSTYRVVSVLTVLHQDWLNGKEYKCKVSNKALPASIEKTISKAKGQPREPQVCTLPPSRDELTKNQVSLSCAVKGFYPSDIAVEWESNGQPENNYKTTPPVLDSDGSFFLVSKLTVDKSRWQQGNVFSCSVMHEALHNHYTQKSLSLSPGK heavy: not shown light: DIELTQPPSVSVAPGQTARISCSGDNLRHYYVYWYQQKPGQAPVLVIYGDSKRPSGIPERFSGSNSGNTATLTISGTQAEDEADYYCQTYTGGASLVFGGGTKLTVLGQPKAAPSVTLFPPSSEELQANKATLVCLISDFYPGAVTVAWKADSSPVKAGVETTTPSKQSNNKYAASSYLSLTPEQWKSHRSYSCQVTHEGSTVEKTVAPTECS	111	130	27.1

— patent publication US20220041721A1 (WUHAN YZY BIOPHARMA, published 2022)
